Measured values reported in IntAct's records for PubMed 15601840.

B1: Structural maintenance of chromosomes protein 6 (Homo sapiens), Q96SB8 (parent)
chain: MAKRKEENFSSPKNAKRPRQEELEDFDKDGDEDECKGTTLTAAEVGIIESIHLKNFMCHSMLGPFKFGSNVNFVVGNNGSGKSAVLTALIVGLGGRAVATNRGSSLKGFVKDGQNSADISITLRNRGDDAFKASVYGNSILIQQHISIDGSRSYKLKSATGSVVSTRKEELIAILDHFNIQVDNPVSVLTQEMSKQFLQSKNEGDKYKFFMKATQLEQMKEDYSYIMETKERTKEQIHQGEERLTELKRQCVEKEERFQSIAGLSTMKTNLESLKHEMAWAVVNEIEKQLNAIRDNIKIGEDRAARLDRKMEEQQVRLNEAEQKYKDIQDKLEKISEETNARAPECMALKADVVAKKRAYNEAEVLYNRSLNEYKALKKDDEQLCKRIEELKKSTDQSLEPERLERQKKISWLKERVKAFQNQENSVNQEIEQFQQAIEKDKEEHGKIKREELDVKHALSYNQRQLKELKDSKTDRLKRFGPNVPALLEAIDDAYRQGHFTYKPVGPLGACIHLRDPELALAIESCLKGLLQAYCCHNHADERVLQALMKRFYLPGTSRPPIIVSEFRNEIYDVRHRAAYHPDFPTVLTALEIDNAVVANSLIDMRGIETVLLIKNNSVARAVMQSQKPPKNCREAFTADGDQVFAGRYYSSENTRPKFLSRDVDSEISDLENEVENKTAQILNLQQHLSALEKDIKHNEELLKRCQLHYKELKMKIRKNISEIRELENIEEHQSVDIATLEDEAQENKSKMKMVEEHMEQQKENMEHLKSLKIEAENKYDAIKFKINQLSELADPLKDELNLADSEVDNQKRGKRHYEEKQKEHLDTLNKKKRELDMKEKELEEKMSQARQICPERIEVEKSASILDKEINRLRQKIQAEHASHGDREEIMRQYQEARETYLDLDSKVRTLKKFIKLLGEIMEHRFKTYQQFRRCLTLRCKLYFDNLLSQRAYCGKMNFDHKNETLSISVQPGEGNKAAFNDMRALSGGERSFSTVCFILSLWSIAESPFRCLDEFDVYMDMVNRRIAMDLILKMADSQRFRQFILLTPQSMSSLPSSKLIRILRMSDPERGQTTLPFRPVTQEEDDDQR
B2: Structural maintenance of chromosomes protein 5 (Schizosaccharomyces pombe (strain ATCC 38366 / 972)), O13710 (parent)
chain: MDGLRPSKRRKSNPLYSDYALGSIVRIKLVNFVTYDYCELFPGPYLNLIIGPNGTGKSTIVSAICIGLGWPPKLLGRAKEAREFIKYGKNTATIEIEMKYRDDETVTITRQISQDKSSSFSINREACATSSITSLMDTFNVQLNNLCHFLPQDRVAEFAQLDPYSRLMETERAIDHEGLLPAHEKLIDLRKREREILQNKNQGQSTLNSLKDRQQALEKEVNIFKEREKIKSYIEMLGLAKMLVIYREKTNVFNQLRADKKKLKKDLKDLVEEFQPILDKGEELRSDLKLKDDTFNDYSSASMELNTSNLRARASFSNFMENEKKLYEKVNTNRTLLRNANLTLNEAQQSVKSLTERQGPRPSDNGVQDLQEKMQEVNAEKLQHENEKLESSHELGSIRTLKAQKLIDLDNIKRELSYYNDATKRKLDFMSSAPGWEDAYQTYQLLKEYESAFEAPAYGPIYMNLKCKEKGFAALIEGFFRTDTFRTFIMSNYNDYLKLMDLITSKTKYTPTIREFSSERKKKIEDFEPPCSREKLQSFGFDGYVIDFLEGPEVVLVALCHMLKIHQIPIAKRELPPASVNALNNFRLANGDPVLKTYLAGSSIHLVFRSAYGDREITRRTDPLPSRSIYFSENVEMDLVKRKEEQLNAQLSQLENLQNEERKLQEKVNEHESLLSRTNDILSTLRKERDEKLIPIHEWQQLQERIEHQTLLLRQREKVPEQFAAEIEKNEDIRKENFEALMNSVLKVKENSIKATNNFEKMLGSRLNVIEAKYKLEKHEMDANQVNARLTEVQDRLKDITDKLASAREDAMSLYGSVVDSLQTQSSDRQTAITELNEEFATSSEVDNKISIEETKLKFMNVNSYVMEQYDARKKEIEELESKMSDFDQSVEELQDEMNSIKEDWVSKLEENVQCISDRFSKGMSGMGYAGEVRLGKSDDYDKWYIDILVQFREEEGLQKLTGQRQSGGERSVSTIMYLLSLQGLAIAPFRIVDEINQGMDPRNERVVHRHIVNSVCDNAVSQYFLVTPKLLPDLTYHRNLKVLCICNGAWLPATFRTSLSTYFEKLKKSALISSS
partner: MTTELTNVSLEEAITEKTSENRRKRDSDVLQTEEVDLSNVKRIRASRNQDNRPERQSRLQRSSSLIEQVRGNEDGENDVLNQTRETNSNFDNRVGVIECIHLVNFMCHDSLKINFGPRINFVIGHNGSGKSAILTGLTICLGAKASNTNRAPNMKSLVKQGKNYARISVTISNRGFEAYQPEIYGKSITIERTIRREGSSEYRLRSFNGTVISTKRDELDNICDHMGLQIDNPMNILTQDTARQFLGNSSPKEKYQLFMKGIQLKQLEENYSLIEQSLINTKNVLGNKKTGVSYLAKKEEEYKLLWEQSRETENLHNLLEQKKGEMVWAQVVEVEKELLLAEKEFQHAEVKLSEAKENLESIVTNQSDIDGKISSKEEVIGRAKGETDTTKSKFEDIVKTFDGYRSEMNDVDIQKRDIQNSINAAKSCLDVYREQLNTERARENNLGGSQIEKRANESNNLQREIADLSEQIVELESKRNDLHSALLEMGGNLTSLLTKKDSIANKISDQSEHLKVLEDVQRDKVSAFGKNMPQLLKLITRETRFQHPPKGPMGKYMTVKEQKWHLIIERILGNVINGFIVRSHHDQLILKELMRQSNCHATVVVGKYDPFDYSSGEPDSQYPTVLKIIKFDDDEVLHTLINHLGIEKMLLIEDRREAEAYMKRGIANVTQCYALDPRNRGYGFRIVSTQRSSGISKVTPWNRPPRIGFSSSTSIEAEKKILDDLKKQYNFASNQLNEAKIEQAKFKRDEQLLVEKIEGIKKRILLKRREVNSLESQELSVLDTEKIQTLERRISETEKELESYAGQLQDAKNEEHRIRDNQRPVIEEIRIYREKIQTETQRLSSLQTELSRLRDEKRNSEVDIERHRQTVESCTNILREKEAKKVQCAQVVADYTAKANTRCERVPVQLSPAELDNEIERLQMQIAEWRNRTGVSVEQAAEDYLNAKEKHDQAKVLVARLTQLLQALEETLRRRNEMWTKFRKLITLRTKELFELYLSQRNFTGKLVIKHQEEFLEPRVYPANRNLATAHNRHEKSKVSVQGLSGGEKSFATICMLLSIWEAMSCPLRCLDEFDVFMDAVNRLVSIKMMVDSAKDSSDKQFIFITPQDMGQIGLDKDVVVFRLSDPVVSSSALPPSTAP

Variants of: B1
Details: with smc5_human SMC5, Q8IY18
smc5_human SMC5, Q8IY18, sequence (Q8IY18 whole entry): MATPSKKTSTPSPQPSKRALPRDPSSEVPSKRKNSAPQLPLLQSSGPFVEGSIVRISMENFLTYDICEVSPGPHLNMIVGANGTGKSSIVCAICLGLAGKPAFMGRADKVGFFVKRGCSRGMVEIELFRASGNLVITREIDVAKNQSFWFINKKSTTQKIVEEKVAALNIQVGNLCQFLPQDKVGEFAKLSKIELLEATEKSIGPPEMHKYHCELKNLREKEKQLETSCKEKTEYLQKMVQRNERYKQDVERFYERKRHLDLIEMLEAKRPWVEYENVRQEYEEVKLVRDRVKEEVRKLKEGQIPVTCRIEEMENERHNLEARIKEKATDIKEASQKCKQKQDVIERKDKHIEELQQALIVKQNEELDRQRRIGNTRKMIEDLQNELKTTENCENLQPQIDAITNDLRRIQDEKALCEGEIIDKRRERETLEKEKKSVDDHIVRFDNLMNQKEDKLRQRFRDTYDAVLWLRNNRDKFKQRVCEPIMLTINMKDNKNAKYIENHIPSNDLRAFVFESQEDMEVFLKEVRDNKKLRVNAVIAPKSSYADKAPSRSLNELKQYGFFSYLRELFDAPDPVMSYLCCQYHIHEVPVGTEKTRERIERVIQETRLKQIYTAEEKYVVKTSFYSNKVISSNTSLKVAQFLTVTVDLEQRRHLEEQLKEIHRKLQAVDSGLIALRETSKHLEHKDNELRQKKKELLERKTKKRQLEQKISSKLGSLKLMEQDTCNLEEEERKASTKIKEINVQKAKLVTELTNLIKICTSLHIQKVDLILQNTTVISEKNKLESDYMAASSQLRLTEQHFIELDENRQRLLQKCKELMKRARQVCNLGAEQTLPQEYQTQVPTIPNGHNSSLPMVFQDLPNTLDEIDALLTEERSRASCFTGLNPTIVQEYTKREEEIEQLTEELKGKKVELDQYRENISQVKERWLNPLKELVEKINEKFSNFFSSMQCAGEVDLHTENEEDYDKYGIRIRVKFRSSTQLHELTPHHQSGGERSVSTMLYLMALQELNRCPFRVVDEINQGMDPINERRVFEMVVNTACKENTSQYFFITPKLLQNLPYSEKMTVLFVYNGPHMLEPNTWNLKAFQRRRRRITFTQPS

| Variant | effect of a mutation on the interaction |
| --- | --- |
| G506R | decreasing interaction |

Variants of: B2
Details: with smc6_schpo smc6, P53692

| Variant | effect of a mutation on the interaction |
| --- | --- |
| G540R | decreasing interaction |
